Results taken from US6348573B1, “Compositions and methods for identifying apoptosis signaling pathway inhibitors and activators” (The Regents of the University of Michigan, priority 1998, dated 2002).

Experiments:
293T cells = test: β-galactosidase apoptosis assay, ARC co-transfection; assay type: cell-based, human
Procedure: Briefly, 2 μg of pcDNA3 or pcDNA3-ARC-Flag or -HA was co-transfected with 3 μg of pcDNA3 or caspase expression plasmids. Total amount of transfected plasmid DNA was always 5 μg. 293T cells were harvested after 22 hr and lysed with 0.2% NP-40 isotonic lysis buffer [Z. N. Oltvai et al., Cell 74:609-619 (1993)]. For immunoprecipitation, […] of soluble protein was incubated with 10 μg/ml of polyclonal anti-Flag, monoclonal anti-AU1 or polyclonal anti-HA antibody for 2 hr at 4° C. and tagged proteins were immunoprecipitated with Protein A-Sepharose 4B (Zymed Laboratories Inc., San Francisco, Calif.). Immunoprecipitates were subjected to 12% SDS-polyacrylamide electrophoresis and immunoblotted with anti-Flag, anti-AU1 or anti-HA antibodies. β-galactosidase apoptosis assay and Caspase-8 enzymatic assay: 5×10^5 293T cells were transfected with 0.3 μg of pcDNA3-β-gal plus each expression plasmid in triplicate. Cells were fixed 16 hrs after transfection, stained for β-galactosidase and assayed for morphological features of apoptosis [M. Muira et al., Cell 75:653-660 (1993)]. Statistical significance was determined by one-way ANOVA followed by Student-Neuman-Keuls post-doc comparisons. For caspase-8 enzymatic assay, 1.5×10^6 human 293T cells were co-transfected with pcDNA3, pcDNA3-ARC-Flag, pcDNA3-caspase-8 and pcDNA3-caspase-8-mt by a calcium phosphate method. Total amount of transfected plasmid DNA was always 2.5 μg. 293T cells were harvested 18hr after transfection and lysed with 0.2% NP-40 isotonic lysis buffer. Tagged proteins were immunoprecipitated and caspase activity was measured as described [N. Inohara et al., Proc. Natl. Acad. Sci. USA 94:10717-10722 (1997)].

caspase-8 [1] = molecular target: T1, caspase-8 (Homo sapiens, UniProt Q14790); test: Co-immunoprecipitation of ARC with caspase-8; assay type: binding; settings: caspase-8 deletion mutant
T1 construct: expressed in transfected cells; host or cells: human 293T cells
Procedure: (§1) Briefly, 2 μg of pcDNA3 or pcDNA3-ARC-Flag or -HA was co-transfected with 3 μg of pcDNA3 or caspase expression plasmids. Total amount of transfected plasmid DNA was always 5 μg. 293T cells were harvested after 22 hr and lysed with 0.2% NP-40 isotonic lysis buffer [Z. N. Oltvai et al., Cell 74:609-619 (1993)]. For immunoprecipitation, […] of soluble protein was incubated with 10 μg/ml of polyclonal anti-Flag, monoclonal anti-AU1 or polyclonal anti-HA antibody for 2 hr at 4° C. and tagged proteins were immunoprecipitated with Protein A-Sepharose 4B (Zymed Laboratories Inc., San Francisco, Calif.). Immunoprecipitates were subjected to 12% SDS-polyacrylamide electrophoresis and immunoblotted with anti-Flag, anti-AU1 or anti-HA antibodies.

caspase-8 [2] = test: Co-immunoprecipitation of ARC with caspase-8; assay type: binding, human; settings: 293T lysates
Procedure: as §1

CED-3 = molecular target: T2, CED-3 (Caenorhabditis elegans, UniProt P42573); test: Co-immunoprecipitation of ARC with CED-3; assay type: binding, C. elegans; settings: 293T lysates
T2 construct: expressed in transfected cells; host or cells: human 293T cells
T2 sequence (P42573 222-503): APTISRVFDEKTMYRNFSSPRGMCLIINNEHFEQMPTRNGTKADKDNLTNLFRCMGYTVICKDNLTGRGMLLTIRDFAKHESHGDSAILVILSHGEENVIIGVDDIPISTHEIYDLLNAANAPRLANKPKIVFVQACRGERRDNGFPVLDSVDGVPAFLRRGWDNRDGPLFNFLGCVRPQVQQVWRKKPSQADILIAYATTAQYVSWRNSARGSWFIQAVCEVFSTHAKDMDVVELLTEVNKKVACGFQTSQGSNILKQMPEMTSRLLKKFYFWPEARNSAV
Procedure: as §1

caspase-1 = molecular target: T3, caspase-1 (Homo sapiens, UniProt P29466); test: Co-immunoprecipitation of ARC with caspase-1; assay type: binding; settings: 293T lysates
T3 construct: expressed in transfected cells; host or cells: human 293T cells
T3 sequence (P29466 120-404): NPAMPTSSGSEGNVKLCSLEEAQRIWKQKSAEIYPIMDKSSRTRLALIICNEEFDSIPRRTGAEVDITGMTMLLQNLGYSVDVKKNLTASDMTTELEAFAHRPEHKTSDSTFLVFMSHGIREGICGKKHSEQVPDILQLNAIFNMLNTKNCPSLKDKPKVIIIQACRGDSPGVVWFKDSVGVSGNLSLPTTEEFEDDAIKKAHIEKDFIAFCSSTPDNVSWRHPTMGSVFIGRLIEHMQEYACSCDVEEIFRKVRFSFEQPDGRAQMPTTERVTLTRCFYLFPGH
Procedure: as §1

caspase-3 = molecular target: T4, caspase-3 (Homo sapiens, UniProt P42574); test: Co-immunoprecipitation of ARC with caspase-3; assay type: binding; settings: 293T lysates
T4 construct: expressed in transfected cells; host or cells: human 293T cells
T4 sequence (P42574 29-277): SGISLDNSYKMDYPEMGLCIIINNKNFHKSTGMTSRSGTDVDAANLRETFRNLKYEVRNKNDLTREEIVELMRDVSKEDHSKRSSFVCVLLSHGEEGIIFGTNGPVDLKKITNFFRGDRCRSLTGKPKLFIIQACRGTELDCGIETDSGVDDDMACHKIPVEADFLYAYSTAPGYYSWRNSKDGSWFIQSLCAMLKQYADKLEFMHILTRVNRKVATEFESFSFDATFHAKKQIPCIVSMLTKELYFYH
Procedure: as §1

caspase-9 = molecular target: T5, caspase-9 (Homo sapiens, UniProt P55211); test: Co-immunoprecipitation of ARC with caspase-9; assay type: binding; settings: 293T lysates
T5 construct: expressed in transfected cells; host or cells: human 293T cells
T5 sequence (P55211 1-416): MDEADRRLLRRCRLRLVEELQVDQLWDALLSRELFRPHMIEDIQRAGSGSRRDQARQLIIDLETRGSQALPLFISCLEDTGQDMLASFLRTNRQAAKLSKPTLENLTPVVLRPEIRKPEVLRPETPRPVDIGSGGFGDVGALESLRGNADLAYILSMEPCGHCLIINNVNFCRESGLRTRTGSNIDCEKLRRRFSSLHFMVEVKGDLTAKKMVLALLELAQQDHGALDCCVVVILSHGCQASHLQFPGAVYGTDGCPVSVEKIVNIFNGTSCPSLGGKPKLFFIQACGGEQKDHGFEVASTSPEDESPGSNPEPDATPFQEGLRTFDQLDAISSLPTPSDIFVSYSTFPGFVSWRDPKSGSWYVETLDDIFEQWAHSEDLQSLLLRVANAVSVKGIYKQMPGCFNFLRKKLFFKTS
Procedure: as §1

[3] = molecular target: T6, C-caspase-8-HA (human caspase-8 amino acids 216-496, C-terminal HA tag) (human, UniProt Q14790-4 216-496); test: co-immunoprecipitation of caspase-8 deletion mutants from 293T cells, immunoblot
T6 construct: range 216-496; The canonical UniProt entry has 479 residues; also called pcDNA3-C-caspase-8-HA; C-terminal region that contains the catalytic domain of caspase-8; not shown: C-terminal HA tag
T6 sequence (Q14790 199-479 limits assumed): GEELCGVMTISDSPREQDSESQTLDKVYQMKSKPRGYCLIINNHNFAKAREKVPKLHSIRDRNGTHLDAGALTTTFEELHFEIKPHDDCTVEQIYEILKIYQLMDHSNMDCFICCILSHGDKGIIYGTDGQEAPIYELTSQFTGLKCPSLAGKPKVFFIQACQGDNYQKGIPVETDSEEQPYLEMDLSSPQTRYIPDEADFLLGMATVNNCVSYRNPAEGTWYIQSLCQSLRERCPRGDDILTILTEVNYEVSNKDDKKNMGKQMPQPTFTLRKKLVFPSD

T1 sequence (Q14790 1-215 isoform Q14790-4): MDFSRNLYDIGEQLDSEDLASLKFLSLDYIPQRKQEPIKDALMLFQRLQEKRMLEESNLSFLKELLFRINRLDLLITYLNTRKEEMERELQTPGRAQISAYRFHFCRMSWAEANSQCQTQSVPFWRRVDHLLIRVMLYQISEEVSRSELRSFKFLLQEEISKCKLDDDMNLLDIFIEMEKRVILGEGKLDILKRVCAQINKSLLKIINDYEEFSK

co-immunoprecipitation with caspase-8 (caspase-8 [2]): co-immunoprecipitated
co-immunoprecipitation with CED-3 (CED-3): co-immunoprecipitated
co-immunoprecipitation with caspase-1 (caspase-1): not
co-immunoprecipitation with caspase-3 (caspase-3): not
co-immunoprecipitation with caspase-9 (caspase-9): not
binding result [3]: no binding
B1: human ARC (Apoptosis Repressor with CARD domain), C-terminally Flag- or HA-tagged (other)
chain: MGNAQERPSETIDRERKRLVETLQADSGLLLDALLARGVLTGPEYEALDALPDAERRVRRLLLLVQGKGEAACQELLRCAQRTAGAPDPAWDWQHVGPGYRDRSYDPPCPGHWTPEAPGSGTTCPGLPRASDPDEAGGPEGSEAVQSGTPEEPEPELEAEASKEAEPEPEPEPELEPEAEAEPEPELEPEPDPEPEPDFEERDESEDS
notes: Entire open reading frame expressed in 293T cells; The two tagged constructs are merged here; also called ARC-Flag; ARC-HA; not shown: C-terminal FLAG or HA tag
induction of apoptosis by expression of ARC (293T cells; ARC alone): did not induce apoptosis
apoptosis induced by C. elegans CED-3 (293T cells; co-expression with ARC): inhibited
apoptosis induced by CLARP (293T cells; co-expression with ARC): inhibited
apoptosis induced by FADD (293T cells; co-expression with ARC): inhibited
apoptosis induced by TRADD (293T cells; co-expression with ARC): inhibited
apoptosis induced by caspase-8 (293T cells; co-expression with ARC): inhibited caspase-8-induced killing in a dose-dependent manner
apoptosis induced by stimulation of CD95/Fas receptor (293T cells; co-expression with ARC): partially but significantly inhibited
apoptosis induced by stimulation of TNF-R1 receptor (293T cells; co-expression with ARC): partially but significantly inhibited
apoptosis induced by stimulation of TRAMP/DR3 receptor (293T cells; co-expression with ARC): partially but significantly inhibited
apoptosis mediated by caspase-9 (293T cells; co-expression with ARC): not
association with the N-terminal death effector domain (DED) of caspase-8 (caspase-8 [1]): associated
